Test results published in patent US10689429B2, “Double-acylated GLP-1 compounds” (Novo Nordisk A/S, priority 2014, dated 2020).
*1 amine or outer side, *2 acyl side, *3 side chain or, on linkers, in order; H or OH if unused. Where no end group is shown, it is not given here. Side-chain parts run from the residue outwards. [ ]: non-standard residue; d: D form. The star is where a group is joined. Dodecanoyl(12-OPh(4-COOH)) = O=C(O)c1ccc(OCCCCCCCCCCCC(=O)*)cc1; 9‑(3-carboxyphenoxy)nonanoyl = O=C(O)c1cccc(OCCCCCCCCC(=O)*)c1; Undecanoyl(11-OPh(4-COOH)) = O=C(O)c1ccc(OCCCCCCCCCCC(=O)*)cc1; Decanoyl(10-(4-HOOC-PhO)) = O=C(O)c1ccc(OCCCCCCCCCC(=O)*)cc1; Decanoyl(10-O(3-COOH-Ph)) = O=C(O)c1cccc(OCCCCCCCCCC(=O)*)c1; γGlu = O=C(O)[C@H](CCC(=O)[*:2])N[*:1]; C14 diacid = O=C(O)CCCCCCCCCCCCC(=O)*; AEEA = NCCOCCOCC(=O)O; Aib = CC(C)(N)C(=O)O

B1: GLP-1 derivative of Example 13 (peptide)
peptide: H[Aib]EGTFTSDVSSYLEEQAAREFIAWLVRGK([AEEA-γGlu-γGlu-C14 diacid])K([AEEA-γGlu-γGlu-C14 diacid])
B2: GLP-1 derivative of Example 26 (peptide)
peptide: H[Aib]EGTFTSDVSSYLEEQAAREFIAWLVRGK([AEEA-AEEA-γGlu-Dodecanoyl(12-OPh(4-COOH))])K([AEEA-AEEA-γGlu-Dodecanoyl(12-OPh(4-COOH))])
B3: GLP-1 derivative of Example 23 (peptide)
peptide: H[Aib]EGTFTSDVSSYLEEQAAREFIAWLVRGK([AEEA-AEEA-γGlu-9‑(3-carboxyphenoxy)nonanoyl])K([AEEA-AEEA-γGlu-9‑(3-carboxyphenoxy)nonanoyl])
B4: GLP-1 derivative of Example 12 (peptide)
peptide: H[Aib]EGTFTSDVSSYLEEQAAREFIAWLVRGK([AEEA-AEEA-AEEA-γGlu-C14 diacid])K([AEEA-AEEA-AEEA-γGlu-C14 diacid])
B5: GLP-1 derivative of Example 5 (peptide)
peptide: H[Aib]EGTFTSDVSSYLEEQAAREFIAWLVRGK([AEEA-AEEA-γGlu-C14 diacid])K([AEEA-AEEA-γGlu-C14 diacid])
B6: GLP-1 derivative of Example 3 (peptide)
peptide: H[Aib]EGTFTSDVSSYLEEQAAREFIAWLVRGK([AEEA-AEEA-γGlu-Decanoyl(10-(4-HOOC-PhO))])K([AEEA-AEEA-γGlu-Decanoyl(10-(4-HOOC-PhO))])
B7: GLP-1 derivative of Example 7 (peptide)
peptide: H[Aib]EGTFTSDVSSYLEEQAAREFIAWLVQGK([AEEA-AEEA-γGlu-Undecanoyl(11-OPh(4-COOH))])K([AEEA-AEEA-γGlu-Undecanoyl(11-OPh(4-COOH))])
B8: GLP-1 derivative of Example 28 (peptide)
peptide: H[Aib]EGTFTSDVSSYLEEQAAREFIEWLVRGK([AEEA-AEEA-AEEA-AEEA-γGlu-Decanoyl(10-O(3-COOH-Ph))])K([AEEA-AEEA-AEEA-AEEA-γGlu-Decanoyl(10-O(3-COOH-Ph))])
B9: GLP-1 derivative of Example 22 (peptide)
peptide: H[Aib]EGTFTSDVSSYLEEQAAREFIAWLVRGK([AEEA-AEEA-AEEA-AEEA-γGlu-Decanoyl(10-O(3-COOH-Ph))])K([AEEA-AEEA-AEEA-AEEA-γGlu-Decanoyl(10-O(3-COOH-Ph))])

Tests used:
human GLP-1 receptor [1] = target: T1, human GLP-1 receptor (Homo sapiens, UniProt P43220); experiment: In vitro potency, CRE luciferase reporter gene assay in BHK cells expressing the human GLP-1 receptor; assay type: cell-based; settings: average of duplicates;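 further: firefly luciferase luminescence read after 3 h incubation at 37 °C, compounds tested in an eight-point series from 0.01 pM to 100 nM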
T1 construct: expressed in transfected cells; host or cells: membranes from BHK cells, parent line BHKTS13, clone FCW467-12A
T1 sequence (P43220 24-463): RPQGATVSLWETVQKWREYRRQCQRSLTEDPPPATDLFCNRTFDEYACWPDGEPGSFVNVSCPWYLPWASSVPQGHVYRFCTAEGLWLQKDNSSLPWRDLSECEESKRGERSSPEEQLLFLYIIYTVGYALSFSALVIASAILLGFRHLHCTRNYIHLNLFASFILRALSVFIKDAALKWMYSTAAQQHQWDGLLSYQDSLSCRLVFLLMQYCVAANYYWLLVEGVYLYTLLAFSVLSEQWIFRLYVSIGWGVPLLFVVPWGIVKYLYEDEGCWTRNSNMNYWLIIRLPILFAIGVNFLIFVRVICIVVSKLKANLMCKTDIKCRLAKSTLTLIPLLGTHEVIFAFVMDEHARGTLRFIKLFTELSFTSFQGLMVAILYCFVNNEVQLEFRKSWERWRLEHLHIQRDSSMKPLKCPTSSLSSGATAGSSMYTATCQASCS
Procedure: The in vitro potency is the measure of human GLP-1 receptor activation in a whole cell assay.
In vitro potency was determined by measuring the response of the human GLP-1 receptor in a reporter gene assay. The assay was performed in a stably transfected BHK cell line that expresses the human GLP-1 receptor and contains the DNA for the cAMP response element (CRE) coupled to a promoter and the gene for firefly luciferase (CRE luciferase). When the human GLP-1 receptor is activated it results in the production of cAMP, which in turn results in the luciferase protein being expressed. When assay incubation is completed the luciferase substrate (luciferin) is added and the enzyme converts luciferin to oxyluciferin to produce bioluminescence. The luminescence is measured as the readout for the assay.
An increase of the in vitro potency, EC50 value, in the presence of serum albumin would indicate an affinity to serum albumin and represents a method to predict a protracted pharmacokinetic profile of the test substance in animal models.
The cells were cultured at 5% CO2 in Cell Culture Medium. They were aliquoted and stored in liquid nitrogen. Before each assay an aliquot is taken up and washed twice in PBS before being suspended at the desired concentration in the assay specific buffer. For 96-well plates the suspension was made to give a final concentration of 5×10^3 cells/well.
Assay Medium consisted of DMEM w/o phenol red, 10 mM Hepes and 1× Glutamax. The 1% Assay Buffer consisted of 2% ovalbumin, 0.2% Pluronic F-68 and 2% HSA in Assay Medium. The 0% Assay Buffer consisted of 2% ovalbumin and 0.2% Pluronic F-68 in Assay Medium.
1) Cell stocks were thawed in a 37° C. water bath.
2) Cells were washed three times in PBS.
3) The cells were counted and adjusted to 5×10^3 cells/50 μl (1×10^5 cells/ml) in Assay Medium. A 50 μl aliquot of cells was transferred to each well in the assay plate.
4) Stocks of the test compounds and reference compounds were diluted to a concentration of 0.2 pM in 0% Assay Buffer for the 0% HSA CRE luciferase assay and 1% Assay Buffer for the 1% HSA CRE luciferase assay. […] Compounds were tested at the following final concentrations: 1×10^−7 M, 1×10^−8 M; 1×10^−9 M, 1×10^−10 M, 1×10^−11 M, 1×10^−12 M, 1×10^−13 M, and 1×10^−14 M. 6) The assay plate was incubated for 3 h in a 5% CO2 incubator at 37° C. […] 8) A 100 μl aliquot of steadylite plus reagent was added to each well of the assay plate (reagent was light sensitive). 9) Each assay plate was covered with aluminum foil to protect it from light and shaken for 30 min at room temperature. 10) Each assay plate was read in a Packard TopCount NXT instrument. Calculations and Results
The data from the TopCount instrument were transferred to GraphPad Prism software. The software performs a non-linear regression (log(agonist) vs response).
A minimum of two replicates was measured for each sample on separate assay plates. The reported values are averages of the duplicates. For some examples more than one assay was run and in this case the data reported are the averages of the averaged duplicates.

human GLP-1 receptor [2] = target: T2, human GLP-1 receptor (human, UniProt P43220)
Target sequence in this assay (P43220 24-463): as above

human GLP-1 receptor [3] = target: T2, human GLP-1 receptor; experiment: displacement of [125I]-GLP-1-(7-36)NH2 from membranes with human GLP-1 receptor, SPA, high HSA (2.0%)
Procedure: Each derivative is added in a series of concentrations to isolated membranes containing the human GLP-1 receptor and displacement of the labelled ligand is monitored. The receptor binding is reported as the concentration at which half of the labelled ligand is displaced from the receptor, the $IC50$ value.
For the receptor binding assay in the presence of low HSA (0.001%) 50 μl of the assay buffer was added to each well of an assay plate. […] For the receptor binding assay in the presence of high HSA (2.0%) 50 μl of the 8% albumin stock was added to each well of an assay plate. […] Cell membrane aliquots were thawed and diluted to their working concentration. Fifty μl were added to each well in the assay plate. […] WGA SPA beads were suspended in assay buffer at 20 mg/ml. The suspension was diluted to 10 mg/ml in assay buffer just prior to addition to the assay plate. Fifty μl were added to each well in the assay plate. […] A 25 μl aliquot was reserved for measuring total counts/well. […] The assay plate was incubated for 2 h at 30° C. […] The assay plate was centrifuged for 10 min. […] The assay plate was read in a Packard TopCount NXT instrument.

[4] = EC50/pM (1% HSA), 1% HSA final assay concentration

| Molecule | EC50 (human GLP-1 receptor [1]; EC50/pM (0% HSA), 0% HSA) | EC50 (human GLP-1 receptor [1]; [4]) | EC50/pM (0% HSA) (human GLP-1 receptor [2]) | EC50/pM (1% HSA) (human GLP-1 receptor [2]) | IC50 (human GLP-1 receptor [3]) |
| --- | --- | --- | --- | --- | --- |
| CC[C@H](C)[C@H](NC(=O)[C@H](Cc1ccccc1)NC(=O)[C@H](CCC(=O)O)NC(=O)[C@H](CCCNC(=N)N)NC(=O)[C@H](C)NC(=O)[C@H](C)NC(=O)[C@H](CCC(N)=O)NC(=O)[C@H](CCC(=O)O)NC(=O)[C@H](CCC(=O)O)NC(=O)[C@H](CC(C)C)NC(=O)[C@H](Cc1ccc(O)cc1)NC(=O)[C@H](CO)NC(=O)[C@H](CO)NC(=O)[C@@H](NC(=O)[C@H](CC(=O)O)NC(=O)[C@H](CO)NC(=O)[C@@H](NC(=O)[C@H](Cc1ccccc1)NC(=O)[C@@H](NC(=O)CNC(=O)[C@H](CCC(=O)O)NC(=O)C(C)(C)NC(=O)[C@@H](N)Cc1c[nH]cn1)[C@@H](C)O)[C@@H](C)O)C(C)C)C(=O)N[C@@H](CCC(=O)O)C(=O)N[C@@H](Cc1c[nH]c2ccccc12)C(=O)N[C@@H](CC(C)C)C(=O)N[C@H](C(=O)N[C@@H](CCCNC(=N)N)C(=O)NCC(=O)N[C@@H](CCCCNC(=O)COCCOCCNC(=O)COCCOCCNC(=O)CC[C@H](NC(=O)CCCCCCCCCOc1cccc(C(=O)O)c1)C(=O)O)C(=O)N[C@@H](CCCCNC(=O)COCCOCCNC(=O)COCCOCCNC(=O)CC[C@H](NC(=O)CCCCCCCCCOc1cccc(C(=O)O)c1)C(=O)O)C(=O)O)C(C)C [Example 27, N{Epsilon-36}-[2-[2-[2-[[2-[2-[2-[[(4S)-4-carboxy-4-[10-(3-carboxyphenoxy)decanoylamino]butanoyl]amino]ethoxy]ethoxy]acetyl]amino]ethoxy]ethoxy]acetyl], N{Epsilon-37}-[2-[2-[2-[[2-[2-[2-[[(4S)-4-carboxy-4-[10-(3-carboxyphenoxy)decanoylamino]butanoyl]amino]ethoxy]ethoxy]acetyl]amino]ethoxy]ethoxy]acetyl]-[Aib8,Glu22,Arg26,Glu30,Arg34,Lys36,Lys37]-GLP-1-(7-37)-peptide] | 13 pM | 105 pM | – | – | – |
| CC[C@H](C)[C@H](NC(=O)[C@H](Cc1ccccc1)NC(=O)[C@H](CCC(=O)O)NC(=O)[C@H](CCCNC(=N)N)NC(=O)[C@H](C)NC(=O)[C@H](C)NC(=O)[C@H](CCC(N)=O)NC(=O)[C@H](CCC(=O)O)NC(=O)[C@H](CCC(=O)O)NC(=O)[C@H](CC(C)C)NC(=O)[C@H](Cc1ccc(O)cc1)NC(=O)[C@H](CO)NC(=O)[C@H](CO)NC(=O)[C@@H](NC(=O)[C@H](CC(=O)O)NC(=O)[C@H](CO)NC(=O)[C@@H](NC(=O)[C@H](Cc1ccccc1)NC(=O)[C@@H](NC(=O)CNC(=O)[C@H](CCC(=O)O)NC(=O)C(C)(C)NC(=O)[C@@H](N)Cc1c[nH]cn1)[C@@H](C)O)[C@@H](C)O)C(C)C)C(=O)N[C@@H](CCC(=O)O)C(=O)N[C@@H](Cc1c[nH]c2ccccc12)C(=O)N[C@@H](CC(C)C)C(=O)N[C@H](C(=O)N[C@@H](CCCNC(=N)N)C(=O)NCC(=O)N[C@@H](CCCCNC(=O)COCCOCCNC(=O)COCCOCCNC(=O)COCCOCCNC(=O)COCCOCCNC(=O)CC[C@H](NC(=O)CCCCCCCCCOc1cccc(C(=O)O)c1)C(=O)O)C(=O)N[C@@H](CCCCNC(=O)COCCOCCNC(=O)COCCOCCNC(=O)COCCOCCNC(=O)COCCOCCNC(=O)CC[C@H](NC(=O)CCCCCCCCCOc1cccc(C(=O)O)c1)C(=O)O)C(=O)O)C(C)C [Example 28] | 12 pM | 25 pM | – | – | – |
| B1 | – | – | 1.3 pM | 18 pM | 201 nM |
| B2 | – | – | 1.5 pM | 124 pM | 360 nM |
| B3 | – | – | 7.7 pM | 15 pM | 193 nM |
| B4 | – | – | 1.2 pM | 10 pM | 70 nM |
| B5 | – | – | 1.1 pM | 22 pM | 144 nM |
| B6 | – | – | 1.2 pM | 28 pM | 77 nM |
| B7 | – | – | 1.5 pM | 143 pM | 233 nM |
| B8 | – | – | 12 pM | 25 pM | 173 nM |
| B9 | – | – | 1.8 pM | 7.7 pM | 45 nM |
